A short description of the data set: total protein half-life in vivo (active degradation + dilution); higher = more stable protein.
Setting [1] is: E. coli NCM3722 delta-clpP delta-lon delta-hslV, growth: N-lim chemostat, doubling time 6 h.
Setting [2] is: wild type E. coli NCM3722, growth: C-lim chemostat, doubling time 6 h.
The mark [3] stands for this setting: wild type E. coli NCM3722, growth: C-lim chemostat, doubling time 12 h.
[4] abbreviates: E. coli NCM3722 delta-clpP, growth: N-lim chemostat, doubling time 6 h.
Where [5] appears, read: E. coli NCM3722 delta-hslV, growth: N-lim chemostat, doubling time 6 h.
[6] abbreviates: E. coli NCM3722 delta-lon, growth: N-lim chemostat, doubling time 6 h.
The mark [7] stands for this setting: E. coli NCM3722 delta-smpB, growth: N-lim chemostat, doubling time 6 h.
Setting [8] is: wild type E. coli NCM3722, growth: C-lim chemostat, doubling time 3 h.
Setting [9] is: wild type E. coli NCM3722, growth: N-lim chemostat, doubling time 6 h.
The mark [10] stands for this setting: wild type E. coli NCM3722, growth: N-lim chemostat, doubling time 12 h.
Setting [11] is: wild type E. coli NCM3722, growth: P-lim chemostat, doubling time 6 h.
Where [12] appears, read: wild type E. coli NCM3722, growth: P-lim chemostat, doubling time 12 h.

± gives the standard deviation of the averaged measurements. Where only a bound is given, the exact number is not on record here.

For “MLVSCAMRLHSGVFPDYAEKLPQEEKMEKEDSFPQRVWQIVAAIPEGYVTTYGDVAKLAGSPRAARQVGGVLKRLPEGSTLPWHRVVNRHGTISLTGPDLQRQRQALLAEGVMVSGSGQIDLQRYRWNY [P0AFP2]”, the “total protein half-life in vivo” value is 5.49 ± 0.093 h under setting [1], 4.04 h under setting [2] and 3.96 h under setting [3].

Consider “MWIGIISLFPEMFRAITDYGVTGRAVKNGLLSIQSWSPRDFTHDRHRTVDDRPYGGGPGMLMMVQPLRDAIHAAKAAAGEGAKVIYLSPQGRKLDQAGVSELATNQKLILVCGRYEGIDERVIQTEIDEEWSIGDYVLSGGELPAMTLIDSVSRFIPGVLGHEASATEDSFAEGLLDCPHYTRPEVLEGMEVPPVLLSGNHAEIRRWRLKQSLGRTWLRRPELLENLALTEEQARLLAEFKTEHAQQQHKHDGMA [P0A873]”, for which the “total protein half-life in vivo” value by setting is: under setting [1], 4.44 ± 1.1 h; under setting [4], 4.01 ± 0.084 h; under setting [5], 4.21 ± 0.043 h; under setting [6], 4.7 ± 0.54 h; under setting [7], 4.21 ± 0.33 h; under setting [8], 3.04 ± 0.49 h. Besides, the “total protein half-life in vivo” value runs as follows: under setting [2], 5.88 ± 0.59 h; under setting [3], 8.46 ± 1.3 h; under setting [9], 4.25 ± 0.34 h; under setting [10], 7.45 ± 0.68 h; under setting [11], 5.85 ± 0.19 h; under setting [12], 10.4 ± 0.29 h.

In the case of “MKSLQALFGGTFDPVHYGHLKPVETLANLIGLTRVTIIPNNVPPHRPQPEANSVQRKHMLELAIADKPLFTLDERELKRNAPSYTAQTLKEWRQEQGPDVPLAFIIGQDSLLTFPTWYEYETILDNAHLIVCRRPGYPLEMAQPQYQQWLEDHLTHNPEDLHLQPAGKIYLAETPWFNISATIIRERLQNGESCEDLLPEPVLTYINQQGLYR [P0A752]”, the “total protein half-life in vivo” value is 4.39 ± 0.63 h under setting [1]; 5 ± 0.32 h under setting [5]; 5.03 ± 0.38 h under setting [6]; 4.2 ± 0.31 h under setting [7]; 3.34 ± 0.12 h under setting [8]; 4.95 ± 0.23 h under setting [2]. Besides, the “total protein half-life in vivo” value is, setting by setting: under setting [3], 11.3 ± 2.1 h; under setting [9], 4.49 h; under setting [10], 7.22 ± 0.54 h; under setting [11], 5.47 h; under setting [12], 8.78 ± 2.9 h.

“MIRFEHVSKAYLGGRQALQGVTFHMQPGEMAFLTGHSGAGKSTLLKLICGIERPSAGKIWFSGHDITRLKNREVPFLRRQIGMIFQDHHLLMDRTVYDNVAIPLIIAGASGDDIRRRVSAALDKVGLLDKAKNFPIQLSGGEQQRVGIARAVVNKPAVLLADEPTGNLDDALSEGILRLFEEFNRVGVTVLMATHDINLISRRSYRMLTLSDGHLHGGVGHE [P0A9R7]”: the “total protein half-life in vivo” value is 5.85 ± 0.08 h under setting [1]; 5.57 ± 0.067 h under setting [5]; 5.62 ± 0.4 h under setting [6]; 5.32 ± 0.056 h under setting [7]; 2.762 ± 0.02 h under setting [8]; 5.52 ± 0.12 h under setting [2]. For the same sequence, the “total protein half-life in vivo” value reads like this: under setting [3], 10.1 ± 0.31 h; under setting [9], 5.48 ± 0.17 h; under setting [10], 9.44 ± 1.1 h; under setting [11], 5.26 ± 0.17 h; under setting [12], 11.9 ± 2.3 h.

Consider “MNFLAHLHLAHLAESSLSGNLLADFVRGNPEESFPPDVVAGIHMHRRIDVLTDNLPEVREAREWFRSETRRVAPITLDVMWDHFLSRHWSQLSPDFPLQEFVCYAREQVMTILPDSPPRFINLNNYLWSEQWLVRYRDMDFIQNVLNGMASRRPRLDALRDSWYDLDAHYDALETRFWQFYPRMMAQASRKAL”, for which the “total protein half-life in vivo” value under setting [1] came out at 5.09 ± 0.57 h; the “total protein half-life in vivo” value under setting [4] stood at 2 ± 0.55 h; the “total protein half-life in vivo” value under setting [5] worked out at 2.32 h; the “total protein half-life in vivo” value under setting [6] was determined as 3.5 ± 0.25 h; the “total protein half-life in vivo” value under setting [7] was 3.83 h; the “total protein half-life in vivo” value under setting [8] came to 2.18 h. For the same sequence, the “total protein half-life in vivo” value is, setting by setting: under setting [2], 4.23 h; under setting [3], 6.12 h; under setting [9], 3.3 h; under setting [10], 4.2 h; under setting [11], 3.04 ± 0.068 h; under setting [12], 3.73 ± 1.6 h.

For “MKITLLVTLLFGLVFLTTVGAAERTLTPQQQRMTSCNQQATAQALKGDARKTYMSDCLKNSKSAPGEKSLTPQQQKMRECNNQATQQSLKGDDRNKFMSACLKKAA [P0AFM4]”, the “total protein half-life in vivo” value under setting [1] was 6.55 h; the “total protein half-life in vivo” value under setting [4] is 5.82 ± 1.1 h; the “total protein half-life in vivo” value under setting [3] is 6.86 ± 1.4 h; the “total protein half-life in vivo” value under setting [11] was 5.5 ± 1.8 h; the “total protein half-life in vivo” value under setting [12] turned out to be 12.8 ± 2.9 h.

“MRKIIHVDMDCFFAAVEMRDNPALRDIPIAIGGSRERRGVISTANYPARKFGVRSAMPTGMALKLCPHLTLLPGRFDAYKEASNHIREIFSRYTSRIEPLSLDEAYLDVTDSVHCHGSATLIAQEIRQTIFNELQLTASAGVAPVKFLAKIASDMNKPNGQFVITPAEVPAFLQTLPLAKIPGVGKVSAAKLEAMGLRTCGDVQKCDLVMLLKRFGKFGRILWERSQGIDERDVNSERLRKSVGVERTMAEDIHHWSECEAIIERLYPELERRLAKVKPDLLIARQGVKLKFDDFQQTTQEHVWPRLNKADLIATARKTWDERRGGRGVRLVGLHVTLLDPQMERQLVLGL”: the “total protein half-life in vivo” value under setting [1] stood at 4.16 ± 0.15 h.

As to “MSFSVQETLFSLLQHNAISGHENAVADVMLCEFRRQAKEVWRDRLGNVVARYGSDKPDALRLMIFAHMDEVGFMVRKIEPSGFLRFERVGGPAQVTMAGSIVTLTGDKGPVMGCIGIKSYHFAKGDERTQSPSVDKLWIDIGAKDKDDAIRMGIQVGTPVTLYNPPQLLANDLVCSKALDDRLGCTALLGVADAISTMELDIAVYLVASVQEEFNIRGIVPVLRRVKPDLAIGIDITPSCDTPDLHDYSEVRINQGVGITCLNYHGRGTLAGLITPPRLIRMLEQTALEHNIPVQREVAPGVITETGYIQVEQDGIPCASLSIPCRYTHSPAEVASLRDLTDCIRLLTALAGMSAAHFPVEPDSGTTQEAHPL”, the “total protein half-life in vivo” value is greater than 8 h under setting [1]; 3.05 ± 0.28 h under setting [8]; 6.24 ± 0.29 h under setting [2]; 10.9 ± 0.36 h under setting [3]; 10.2 h under setting [12].

Regarding “MVAENQPGHIDQIKQTNAGAVYRLIDQLGPVSRIDLSRLAQLAPASITKIVREMLEAHLVQELEIKEAGNRGRPAVGLVVETEAWHYLSLRISRGEIFLALRDLSSKLVVEESQELALKDDLPLLDRIISHIDQFFIRHQKKLERLTSIAITLPGIIDTENGIVHRMPFYEDVKEMPLGEALEQHTGVPVYIQHDISAWTMAEALFGASRGARDVIQVVIDHNVGAGVITDGHLLHAGSSSLVEIGHTQVDPYGKRCYCGNHGCLETIASVDSILELAQLRLNQSMSSMLHGQPLTVDSLCQAALRGDLLAKDIITGVGAHVGRILAIMVNLFNPQKILIGSPLSKAADILFPVISDSIRQQALPAYSQHISVESTQFSNQGTMAGAALVKDAMYNGSLLIRLLQG”, the “total protein half-life in vivo” value runs as follows: under setting [1], 5.81 ± 0.28 h; under setting [4], 6.92 ± 0.73 h; under setting [6], 6.12 ± 0.57 h; under setting [7], 6.02 ± 0.33 h; under setting [8], 2.89 ± 0.014 h; under setting [2], 5.92 ± 0.69 h. In addition, the “total protein half-life in vivo” value was found to be 9.65 ± 0.51 h under setting [3]; 5.85 ± 0.26 h under setting [9]; 12.8 ± 0.51 h under setting [10]; 6.19 ± 1 h under setting [11]; 12.4 ± 0.56 h under setting [12].

These data come from the supplement of paper PMC11246515.
